From publication PMC2935968, “Structural Basis for Assembly of Hsp90-Sgt1-CHORD Protein Complexes: Implications for Chaperoning of NLR Innate Immunity Receptors” (Molecular Cell, 2010)

T1: GST-Rar1 (wild type) (Arabidopsis thaliana, UniProt Q9SE33 1-226)
T1 construct: Rar1, Arabidopsis thaliana, wild type; Construct details are in the Supplemental Information; also called Wild-type GST-Rar1; GST-tagged Rar1
T1 sequence (looked up): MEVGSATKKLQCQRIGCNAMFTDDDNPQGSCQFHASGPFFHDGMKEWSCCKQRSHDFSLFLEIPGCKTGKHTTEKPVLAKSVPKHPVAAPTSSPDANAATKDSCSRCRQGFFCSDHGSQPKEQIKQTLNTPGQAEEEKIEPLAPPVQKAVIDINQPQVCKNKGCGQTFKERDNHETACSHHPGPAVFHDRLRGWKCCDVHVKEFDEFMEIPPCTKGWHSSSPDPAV

B1: CS domain of cress (Arabidopsis thaliana) Sgt1a (domain or fragment)
chain: AKYRHEYYQKPEEVVVTVFAKGIPKQNVNIDFGEQILSVVIEVPGEDAYYLQPRLFGKIIPDKCKYEVLSTKIEICLAKADIITWASLEHGK
notes: Sgt1a, Arabidopsis thaliana, CS domain; construct as described previously (Boter et al., 2007; Zhang et al., 2008); also called Sgt1-CS; Sgt-CS
B2: CHORDII domain of cress (Arabidopsis thaliana) Rar1 (domain or fragment)
chain: AVIDINQPQVCKNKGCGQTFKERDNHETACSHHPGPAVFHDRLRGWKCCDVHVKEFDEFMEIPPCTKGWHSSS
notes: Rar1, Arabidopsis thaliana, CHORDII domain; also called Rar1-CHORDII; isolated CHORDII
B3: Rar1 (wild type, not GST-tagged) (natural protein, Arabidopsis thaliana, UniProt Q9SE33 1-226, looked up)
chain: T1 sequence (looked up)

Tests used:
[1] = target: T1, GST-Rar1 (wild type); assay: pull-down; GST-Rar1 as bait, Hsp90, untagged Rar1 and Sgt1-CS present; conditions: both partners purified
[2] = target: B1; assay: ITC; Rar1-CHORDII with Sgt1-CS (Figure S2C); conditions not shown; conditions: both partners purified
[3] = target: Hsp90 ( (Arabidopsis, H. vulgare or …, UniProt Q7XJ80 1-700)); assay: cell-based or functional assay
Chain of Hsp90 ( (Q7XJ80 entry or part of it): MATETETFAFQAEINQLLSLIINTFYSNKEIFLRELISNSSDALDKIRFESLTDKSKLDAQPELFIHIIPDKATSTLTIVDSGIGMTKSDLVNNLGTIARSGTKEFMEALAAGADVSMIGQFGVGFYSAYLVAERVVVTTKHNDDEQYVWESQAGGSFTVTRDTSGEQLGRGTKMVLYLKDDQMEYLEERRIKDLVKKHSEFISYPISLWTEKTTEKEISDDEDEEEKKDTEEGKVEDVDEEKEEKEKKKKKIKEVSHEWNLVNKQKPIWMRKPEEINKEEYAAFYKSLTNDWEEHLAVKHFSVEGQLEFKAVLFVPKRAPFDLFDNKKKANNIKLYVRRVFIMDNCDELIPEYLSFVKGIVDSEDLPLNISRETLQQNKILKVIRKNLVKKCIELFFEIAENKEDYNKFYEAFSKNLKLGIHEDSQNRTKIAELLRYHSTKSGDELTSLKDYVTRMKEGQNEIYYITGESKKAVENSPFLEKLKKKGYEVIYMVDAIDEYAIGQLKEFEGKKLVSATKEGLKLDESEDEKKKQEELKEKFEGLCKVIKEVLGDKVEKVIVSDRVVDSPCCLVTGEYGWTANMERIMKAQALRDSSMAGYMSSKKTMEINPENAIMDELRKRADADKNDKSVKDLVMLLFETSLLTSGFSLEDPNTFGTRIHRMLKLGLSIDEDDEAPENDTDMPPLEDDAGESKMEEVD

Binder: B1
binding result [1]: binds

Binder: B2
Kd [2]: 3.09 ± 0.15 µM

Binder: B3
ATP turnover of Ta-Hsp90 with increasing concentrations of Rar1 (up to 20-fold excess) [3]: 2 fold
